Target: RSV G central conserved cysteine-rich region peptide (Gpep, residues 149-196) (respiratory syncytial virus strain A2)
Test: Tricine SDS-PAGE, non-reducing and reducing; 16% Tricine SDS-PAGE of concentrated Gpep, with or without β-mercaptoethanol and with or without heat denaturation

RSV G central conserved cysteine-rich region peptide (Gpep, residues 149-196)
stoichiometry N: 2

Source: PMC13013481
